Source: article PMC2171544

Target: recombinant Xenopus TACC3/maskin (TACC3-WT), full length, His6-tagged (Xenopus laevis) (UniProt Q9PTG8)
Experiment: sucrose density gradient centrifugation + SEC

Chain of recombinant Xenopus TACC3/maskin (TACC3-WT), full length, His6-tagged (Xenopus laevis) (Q9PTG8 whole entry): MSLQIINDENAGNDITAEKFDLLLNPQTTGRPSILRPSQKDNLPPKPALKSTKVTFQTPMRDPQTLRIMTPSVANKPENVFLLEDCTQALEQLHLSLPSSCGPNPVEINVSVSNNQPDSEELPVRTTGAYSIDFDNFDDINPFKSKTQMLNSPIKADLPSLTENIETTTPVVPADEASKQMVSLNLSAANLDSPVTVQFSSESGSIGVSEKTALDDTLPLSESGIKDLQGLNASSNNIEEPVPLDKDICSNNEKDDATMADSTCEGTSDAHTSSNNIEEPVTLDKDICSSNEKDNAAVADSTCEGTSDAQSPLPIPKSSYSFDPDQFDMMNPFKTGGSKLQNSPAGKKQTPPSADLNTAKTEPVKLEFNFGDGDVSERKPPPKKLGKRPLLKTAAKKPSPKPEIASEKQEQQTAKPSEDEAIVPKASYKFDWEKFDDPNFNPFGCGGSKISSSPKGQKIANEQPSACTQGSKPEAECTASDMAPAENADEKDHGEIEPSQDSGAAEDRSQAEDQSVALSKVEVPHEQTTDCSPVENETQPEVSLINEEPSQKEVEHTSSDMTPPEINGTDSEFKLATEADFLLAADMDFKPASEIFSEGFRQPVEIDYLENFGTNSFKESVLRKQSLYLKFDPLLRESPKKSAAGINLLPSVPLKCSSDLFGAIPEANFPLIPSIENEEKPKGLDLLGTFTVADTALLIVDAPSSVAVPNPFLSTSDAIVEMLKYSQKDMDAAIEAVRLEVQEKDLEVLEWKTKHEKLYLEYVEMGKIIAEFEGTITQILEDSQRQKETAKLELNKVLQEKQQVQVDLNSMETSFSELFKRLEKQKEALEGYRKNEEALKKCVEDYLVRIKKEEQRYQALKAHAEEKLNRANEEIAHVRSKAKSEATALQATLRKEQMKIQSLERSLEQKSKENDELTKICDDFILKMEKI

- stoichiometry N: 1
Substance: recombinant XMAP215, Q9PT63 1-2065
